Like-named read-outs stand apart in the source and are kept apart here.
Assays:
[1] = test system: ob/ob mice, db/db mice and obese ZDF rats; settings: cited from earlier work
diabetic rhesus monkeys = settings: 6 weeks; cited from earlier work
db/db mice [2] = experiment: Oral glucose tolerance test (OGTT) in db/db mice after 21 days; format: in vivo; settings: after 21 days of treatment, 2 g/kg oral glucose, vs vehicle treated obese control
Procedure: (§1) Female db/db mice (BKS.Cg-m+/+Leprdb/J, age of 6 weeks) were treated with vehicle (PBS), 0.05 mg·kg^−1·day^−1 AVE0010, 0.75 mg·kg^−1·day^−1 recombinant human FGF-21 (SEQ ID NO: 2) or a combined dose of FGF-21 (SEQ ID NO: 2) and AVE0010 (0.75+0.05 mg·kg^−1·day^−1) subcutaneously once daily. Mice were fed ad libitum. Before the first treatment, after one week and 4 weeks blood glucose and HbA1c were measured under fed conditions. After 21 days of treatment an oral glucose tolerance test (OGTT) was initiated. Fasted mice were orally challenged with 2 g·kg^−1 glucose solution and blood glucose was measured at indicated time points.

mouse 3T3-L1 adipocytes = settings: in the presence and absence of insulin; cited from earlier work
db/db mice [3] = experiment: Fed blood glucose in db/db mice (age of 6 weeks); format: in vivo; settings: fed conditions, up to 4 weeks, AVE0010 0.05, FGF-21 0.75 mg/kg/day s.c. or combined
Procedure: as §1

[4] = ob/ob and db/db mice and 8 week old ZDF rats, dose dependent (WO03/011213)
[5] = ob/ob, db/db mice and obese ZDF rats (Kharitonenkov et al. 2005)

B1: FGF-21: recombinant human FGF-21 (SEQ ID NO: 2): deletion of amino acids 1-28 of human FGF-21 and additional N-terminal glycine (protein)
chain: GHPIPDSSPLLQFGGQVRQRYLYTDDAQQTEAHLEIREDGTVGGAADQSPESLLQLKALKPGVIQILGVKTSRFLCQRPDGALYGSLHFDPEACSFRELLLEDGYNVYQSEAHGLPLHLPGNKSPHRDPAPRGPARFLPLPGLPPAPPEPPGILAPQPPDVGSSDPLSMVGPSQGRSPSYAS
modifications: G linked to fragment of human FGF21 from H29 to S209
mitogenicity, hypoglycemia, or weight gain ([1]; any dose tested, diabetic or healthy animals): did not induce
food intake or body weight/composition ([1]; diabetic or lean mice and rats, 2 weeks of administration): did not affect
fed and fasting blood glucose [1, 4]: decrease
glucagon levels [1, 4]: decrease
triglycerides [1, 4]: decrease
blood glucose [1, 5]: significantly lowered
fasting insulin levels [1, 5]: decreased
glucose clearance during an oral glucose tolerance test [1, 5]: improved
triglycerides [1, 5]: significantly lowered
HDL-cholesterol (diabetic rhesus monkeys): increased
LDL-cholesterol (diabetic rhesus monkeys): significantly lowered
body weight (diabetic rhesus monkeys): slightly but significantly decreased
fasting plasma glucose (diabetic rhesus monkeys): reduced
fructosamine (diabetic rhesus monkeys): reduced
glucagone levels (diabetic rhesus monkeys): reduced
hypoglycemia (diabetic rhesus monkeys): not observed
insulin (diabetic rhesus monkeys): reduced
triglyceride (diabetic rhesus monkeys): reduced
glucose tolerance (OGTT) (db/db mice [2]): small improvement
glucose uptake (mouse 3T3-L1 adipocytes): stimulate
blood glucose (db/db mice [3]): inhibition of blood glucose increase

From US20140142023A1, “Pharmaceutical Composition for Treating A Metabolic Syndrome” (SANOFI, priority 2011, published 2014)
